Experimental data taken from US20250376696A1.

Biological target: SIRPα of non-obese diabetic (NOD) mice (mouse (NOD strain)) (UniProt O89094)
Assay: cell-based or functional assay

UniProt O89094, sequence (O89094 168-257): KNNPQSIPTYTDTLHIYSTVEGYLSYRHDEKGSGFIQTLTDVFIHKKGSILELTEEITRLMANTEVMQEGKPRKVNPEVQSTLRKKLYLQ

Substance: human CD47 on lentiviral vector (LV) particles (from UniProt Q08722 19-323) (receptor)
- LV copies in plasmacytoid dendritic cells (pDC), NOD versus C57BL/6 mice: > 10 fold
- LV copies per cell (vector copy number, VCN) in sorted hepatocytes, NOD versus C57BL/6 mice: 4 fold
- VCN in liver macrophages, NOD versus C57BL/6 mice: 30 fold
- VCN in spleen, NOD versus C57BL/6 mice: 5 fold
